Source: PMC9257651

Tests used:
[1] = target: ClpP2 co-expressed with ClpP1 in E. coli (L. monocytogenes); assay: SEC
[2] = target: C-terminally myc-tagged ClpP2 (ClpP2-2×myc) (L. monocytogenes (endogenous gene in L. monocytogenes EGD-e)); assay: affinity purification with mass spectrometry
[3] = target: ClpP1 co-expressed with ClpP2 in E. coli (L. monocytogenes); assay: SEC
[4] = target: Full-length ClpP2 with a C-terminal Strep-tag II (tetradecamer, ClpP2_(14)) (L. monocytogenes); assay: SEC + other: intact protein mass spectrometry

ClpP2 co-expressed with ClpP1 in E. coli (enzyme)
stoichiometry N [1]: 14

ClpP1, endogenous in L. monocytogenes (enzyme)
fold enrichment at 42 °C against 20 °C [2]: 6 fold

ClpP1 co-expressed with ClpP2 in E. coli (enzyme)
stoichiometry N [3]: 7

ClpP1 with a C-terminal Strep-tag II (heptamer, ClpP1_(7)) (enzyme)
percent ClpP1 in the tetradecamer peak (intact protein MS) [4]: 47 to 49%

Full-length ClpP2 with a C-terminal Strep-tag II (tetradecamer, ClpP2_(14)) (enzyme)
stoichiometry N [4]: 14
